Test [1] has as its target human DDR1b protein (Discoidin Domain Receptor 1, isoform b) (human) (UniProt Q08345). Briefly: cell-based or functional assay.
In test [2] the target is DDR1bDN protein (dominant negative type DDR1b not having kinase activity) (human) (UniProt Q08345). Briefly: cell-based or functional assay.

Turning to “non-immunized rabbit IgG (Jackson Immunoresearch Company) (antibody)”, in test [1], the cell protection inhibitory activity at 33 µg/mL, relative to the change induced by type IV collagen as 100%, HCT116 cells (Caspase-Glo 3/7 Assay) was found to be 0% and the cell protection inhibitory activity at 1 mg/mL, relative to the absorbance change induced by type IV collagen as 100%, DDR1FL-#117 cells is 1.7%.
On to “type IV collagen (Sigma Company) (ligand)”, for which, in test [2], the suppression of serum-removal-induced apoptosis by addition of type IV collagen in DDR1bDN-#206 cells (Cell Death Detection ELISA) was 34%. Also, the suppression of serum-removal-induced apoptosis by addition of type IV collagen in DDR1FL-#117 cells (Cell Death Detection ELISA) in test [1] turned out to be 53%.

The record behind these values is patent publication US20090142345A1.
